Measurements reported in PMC9598480.
Where “and” joins values, the source holds several entries; their conditions need not be identical. Equal values may be shown once.

Key:
[1] = biological target: recombinant Fasciola hepatica cytosolic Cu/Zn superoxide dismutase (rFhSOD1) (Fasciola hepatica); assay: SEC; Superdex 75 10/300 GL column, 400 uL/min, eluted into 1x PBS; standards conalbumin (76 kDa), carbonic anhydrase (29 kDa), aprotinin (6.5 kDa)
[2] = biological target: recombinant Fasciola hepatica extracellular Cu/Zn superoxide dismutase (rFhSOD3), signal peptide removed (Fasciola hepatica); assay: as above

Substance	stoichiometry N [1]	stoichiometry N [2]
recombinant Fasciola hepatica cytosolic Cu/Zn superoxide dismutase (rFhSOD1) (enzyme)	2	
recombinant Fasciola hepatica extracellular Cu/Zn superoxide dismutase (rFhSOD3), signal peptide removed (enzyme)		2 and 4
